Reference: publication PMC4070910, “Cathepsin S Signals via PAR2 and Generates a Novel Tethered Ligand Receptor Agonist” (PLoS ONE, 2014)
Entries after “also recorded” stand apart in the source; their conditions may differ.

Tests used:
[1] = system: HeLa cells transfected with salmon sperm DNA; test: Fura-2 calcium imaging in HeLa cells transfected with salmon sperm DNA (control); format: cell-based; details: HeLa cells transfected with salmon sperm DNA alone
Experimental: (§1) Human PAR2 cDNA was cloned as an Xho I-Hind III fragment (1206 bp) into pcDNA3.1(−). 10 µg of DNA were diluted into 0.5 ml of DMEM and mixed with 0.5 ml of DMEM containing 10 µl of Lipofectamine 2000 transfection reagent and incubated at room temperature for 20 minutes. HeLa cells were grown to confluence, trypsinized and 1×10^6 cells were pelleted in a 15 ml tube by centrifugation at 1000 rpm for 5 minutes. The DMEM-Lipofectamine 2000-DNA mixture (1 ml) was added to the cell pellet, resuspended gently and incubated at room temperature for 20 minutes. Four ml of complete DMEM with 10% FBS were added to the tube, mixed by inverting the tube several times, plated into a 96-well glass bottom plate at 20,000 cells/well, and placed in a 37°C CO2 incubator. HeLa cells transfected with vector alone or salmon sperm DNA (shown in the figures) were plated as a control. The medium was aspirated two days after transfection. Fura-2 was used as a ratiometric calcium-sensitive indicator as follows. […]
(§2) Imaging was performed using a Zeiss Axiovert 200 M microscope platform equipped with a flipping filter wheel for ratiometric imaging. […] The software later analyzed all images taken during each excitation period. Typically, ratiometric changes were measured in 10–20 cells in each image. An average of the fluorescence of the cells in each image was calculated and plotted against time in seconds.

[2] = system: NHEKs which endogenously express PAR2; test: Calcium imaging in normal human epidermal keratinocytes (NHEKs); format: cell-based
From the text: HeLa cells were obtained from the ATCC and maintained in DMEM supplemented with fetal bovine serum (Fisher Biochemicals), L-glutamine, penicillin and streptomycin. Normal human epidermal keratinocytes (NHEKs) were harvested from neonatal foreskin and maintained in Keratinocyte Serum-Free media supplemented with epidermal growth factor, bovine pituitary extract, L-glutamine, penicillin and streptomycin. All reagents were obtained from Invitrogen unless otherwise noted.
as §1, with “follows. 100 µl of complete DMEM containing 2 µM of Fura-2 were added to each well and left at room temperature in the dark for 1 hr.” for “follows.”
as §2

[3] = system: PAR2M1 (leucine38 to alanine); test: Calcium imaging in HeLa cells transfected with PAR2M1; format: cell-based, human; details: cathepsin S 2 µM, KVDGTS 100 µM
Experimental: as §1
as §2, with “seconds. […]” for “seconds.”

[4] = Specific activity of recombinant cathepsin S; format: biochemical; details: Z-VVR-AMC fluorimetric and Z-FR-pNA colorimetric assays
Experimental: Recombinant human cathepsin S was produced as follows. The human cathepsin S proprotein coding region was isolated by PCR using the forward and reverse primers […] CCTG and […] and a template of plasmid DNA containing the entire coding sequence of human cathepsin S. The PCR product was cut with Nco I and Xho I, and cloned into the pTYB4 expression vector from New England Biolabs for expression in E.coli. Cells were grown in LB medium induced with 0.3 mM IPTG, harvested by centrifugation, resuspended in lysis buffer A (0.5 M NaCl, 0.05 M Tris, 5 mM EDTA, pH 8.0) and lysed in a French press. The lysate was centrifuged and the protein was found predominantly in inclusion bodies which were dissolved in buffer B (10 mM DTT and 8 M urea), and refolded in the presence of buffer B containing 0.7 M L-arginine, 0.01 M glutathione, 0.001 M glutathione disulfide, and 0.005 M EDTA as described. The refolded procathepsin S was concentrated by Minimate Concentrator (Pall Corporation) and washed three times with buffer A. It was activated after adjusting to pH 4.5 with acetic acid, adding DTT to 5 µM and incubating at 37°C for 3 hours. […] The specific activity of cathepsin S was assayed using Z-VVR-AMC in fluorimetric and Z-FR-pNA in colorimetric assays[22] and determined to be 10,000 mU/mg protein.

[5] = cited from earlier work
From the text: To better understand the mechanisms of PAR2 activation and regulation, we sought to identify cleavage sites and downstream signaling events induced by an endogenous cysteine protease, cathepsin S. Cysteine cathepsins, including cathepsin S, have been broadly implicated in health and disease including inflammation, cardiovascular and pulmonary disease, obsesity, itch and pain[15]. […] Cathepsin S is expressed in many types of cells. […] The KVDGTS sequence is preceded by LIG, placing G^40 in the P1 postion and L^38 in the P3 postion. The finding of cleavage after glycine is consistent with what is reported in the MEROPS database and a recent report on proteomic identification of protease cleavage sites (PICS)[25]. These reports reveal that cleavage after leucine at P3 is associated with cathepsin S, but less so than with glycine at P1. Correlations were otherwise weak between these reports and the cleavage sites identified here. Cathep ...

B1: cathepsin S: Recombinant human cathepsin S, cysteine protease, expressed in E.coli, refolded and activated (protein, UniProt P25774 115-331, looked up)
Cathepsin S: LPDSVDWREKGCVTEVKYQGSCGACWAFSAVGALEAQLKLKTGKLVSLSAQNLVDCSTEKYGNKGCNGGFMTTAFQYIIDNKGIDSDASYPYKAMDQKCQYDSKYRAATCSKYTELPYGREDVLKEAVANKGPVSVGVDARHPSFFLYRSGVYYEPSCTQNVNHGVLVVGYGDLNGKEYWLVKNSWGHNFGEEGYIRMARNKGNHCGIASFPSYPEI
calcium response in cells without PAR2 (in words) [1]: Neither cathepsin S nor any of the peptides induced calcium responses | calcium response in NHEKs (in words) ([2]; KVDGTS 100 µM, cathepsin S 2 µM): activated NHEKs | calcium response to the substance as second agent after KVDGTS (in words) ([2]; NHEKs, KVDGTS 100 µM then cathepsin S 2 µM, second agent at 300 s): attenuated | effect as first agent on calcium response to second agent (in words) ([2]; NHEKs, KVDGTS 100 µM, cathepsin S 2 µM, second agent at 300 s): abolishes the response to the subsequent addtion of KVDGTS | calcium response on PAR2M1 (in words) [3]: induced normal calcium responses; also recorded: able to stimulate native PAR2 and PAR2M1 | specific activity [4]: 10,000 mU/mg protein | cleavage after alanine (in words) ([5]; PICS report): rarely cleaves after alanine | elastase activity and Ii chain cleavage (in words) [5]: potent elastase; also recorded: cleaves the Ii chain | pH dependence of activity (in words) [5]: active at neutral pH
